Source: the supplement of paper PMC9112550, “Optimization of the antimicrobial peptide Bac7 by deep mutational scanning” (BMC Biology, 2022)
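Note: peptides expressed intracellularly from a pBAD plasmid library in pooled LB shake-flask culture, induced with 0.3% L-arabinose, DNA abundance read by NGS, three biological replicates, DESeq2 with apeglm shrinkage.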

The sequences below were run on Escherichia coli TOP10 (assay: shrunken log2 fold change of peptide-encoding DNA abundance (4.5 h post-induction vs induction); higher = less antimicrobial activity (less host growth inhibition)). Conditions: time post-induction: 4.5 h; library: site-saturation at positions 5, 18, 19, 20.
RRIRMRPPRLPRPRPRPIRVPRP was tested, and the “shrunken log2 fold change” value was 0.335. RRIRMRPPRLPRPRPRPISIPRP was tested, and the “shrunken log2 fold change” value was -0.313. RRIRMRPPRLPRPRPRPISYPRP was tested, and the “shrunken log2 fold change” value was -0.0167. In the case of RRIRMRPPRLPRPRPRPIVVPRP, the “shrunken log2 fold change” value was 0.0203. For RRIRMRPPRLPRPRPRPIYLPRP, the “shrunken log2 fold change” value was -0.268. With RRIRMRPPRLPRPRPRPIYYPRP the “shrunken log2 fold change” value was -0.51. RRIRMRPPRLPRPRPRPKCWPRP was tested, and the “shrunken log2 fold change” value was 1. In the case of RRIRMRPPRLPRPRPRPKDAPRP, the “shrunken log2 fold change” value was 2.02. With RRIRMRPPRLPRPRPRPKEVPRP the “shrunken log2 fold change” value was 0.00253. With RRIRMRPPRLPRPRPRPKEWPRP the “shrunken log2 fold change” value was 0.0859. With RRIRMRPPRLPRPRPRPKGCPRP the “shrunken log2 fold change” value was -0.0257. RRIRMRPPRLPRPRPRPKIRPRP was tested, and the “shrunken log2 fold change” value was -0.0101. RRIRMRPPRLPRPRPRPKKWPRP was tested, and the “shrunken log2 fold change” value was 0.962. For RRIRMRPPRLPRPRPRPKLIPRP, the “shrunken log2 fold change” value was -0.0987. For RRIRMRPPRLPRPRPRPKLRPRP, the “shrunken log2 fold change” value was -0.0111. With RRIRMRPPRLPRPRPRPKLYPRP the “shrunken log2 fold change” value was 0.256. In the case of RRIRMRPPRLPRPRPRPKQRPRP, the “shrunken log2 fold change” value was 1.1. RRIRMRPPRLPRPRPRPKRCPRP was tested, and the “shrunken log2 fold change” value was 0.211. For RRIRMRPPRLPRPRPRPKRTPRP, the “shrunken log2 fold change” value was 3.45. RRIRMRPPRLPRPRPRPKSAPRP was tested, and the “shrunken log2 fold change” value was 0.389. In the case of RRIRMRPPRLPRPRPRPKTDPRP, the “shrunken log2 fold change” value was 1.32. For RRIRMRPPRLPRPRPRPKYSPRP, the “shrunken log2 fold change” value was -0.326. With RRIRMRPPRLPRPRPRPLAEPRP the “shrunken log2 fold change” value was 3.05. In the case of RRIRMRPPRLPRPRPRPLALPRP, the “shrunken log2 fold change” value was 0.0404. In the case of RRIRMRPPRLPRPRPRPLCRPRP, the “shrunken log2 fold change” value was 0.359. With RRIRMRPPRLPRPRPRPLCYPRP the “shrunken log2 fold change” value was -0.0697. For RRIRMRPPRLPRPRPRPLDHPRP, the “shrunken log2 fold change” value was 0.103. For RRIRMRPPRLPRPRPRPLDPPRP, the “shrunken log2 fold change” value was 0.146. For RRIRMRPPRLPRPRPRPLDRPRP, the “shrunken log2 fold change” value was 0.816. In the case of RRIRMRPPRLPRPRPRPLEKPRP, the “shrunken log2 fold change” value was 1.07. RRIRMRPPRLPRPRPRPLEMPRP was tested, and the “shrunken log2 fold change” value was 1.4. In the case of RRIRMRPPRLPRPRPRPLGCPRP, the “shrunken log2 fold change” value was 0.182. With RRIRMRPPRLPRPRPRPLGHPRP the “shrunken log2 fold change” value was 0.751. With RRIRMRPPRLPRPRPRPLHWPRP the “shrunken log2 fold change” value was 0.116. In the case of RRIRMRPPRLPRPRPRPLIAPRP, the “shrunken log2 fold change” value was 0.34. With RRIRMRPPRLPRPRPRPLIWPRP the “shrunken log2 fold change” value was 0.246. RRIRMRPPRLPRPRPRPLKFPRP was tested, and the “shrunken log2 fold change” value was 0.426. With RRIRMRPPRLPRPRPRPLQAPRP the “shrunken log2 fold change” value was 2.15. For RRIRMRPPRLPRPRPRPLQNPRP, the “shrunken log2 fold change” value was 1.2. With RRIRMRPPRLPRPRPRPLRCPRP the “shrunken log2 fold change” value was 1.61. With RRIRMRPPRLPRPRPRPLSFPRP the “shrunken log2 fold change” value was 0.102. With RRIRMRPPRLPRPRPRPLSVPRP the “shrunken log2 fold change” value was 0.401. In the case of RRIRMRPPRLPRPRPRPLTNPRP, the “shrunken log2 fold change” value was 0.0401. For RRIRMRPPRLPRPRPRPLVIPRP, the “shrunken log2 fold change” value was -0.13. With RRIRMRPPRLPRPRPRPLWAPRP the “shrunken log2 fold change” value was 0.509. With RRIRMRPPRLPRPRPRPLWDPRP the “shrunken log2 fold change” value was 0.437. With RRIRMRPPRLPRPRPRPLYEPRP the “shrunken log2 fold change” value was 0.362. In the case of RRIRMRPPRLPRPRPRPMAEPRP, the “shrunken log2 fold change” value was 2.79. For RRIRMRPPRLPRPRPRPMCFPRP, the “shrunken log2 fold change” value was 0.271. In the case of RRIRMRPPRLPRPRPRPMCGPRP, the “shrunken log2 fold change” value was 0.00224. With RRIRMRPPRLPRPRPRPMCRPRP the “shrunken log2 fold change” value was 0.0713. RRIRMRPPRLPRPRPRPMGKPRP was tested, and the “shrunken log2 fold change” value was 0.0275. RRIRMRPPRLPRPRPRPMHMPRP was tested, and the “shrunken log2 fold change” value was 0.0153. In the case of RRIRMRPPRLPRPRPRPMKEPRP, the “shrunken log2 fold change” value was -0.0707. For RRIRMRPPRLPRPRPRPMKMPRP, the “shrunken log2 fold change” value was 0.803. In the case of RRIRMRPPRLPRPRPRPMLGPRP, the “shrunken log2 fold change” value was 0.141. RRIRMRPPRLPRPRPRPMLKPRP was tested, and the “shrunken log2 fold change” value was 0.197. In the case of RRIRMRPPRLPRPRPRPMMNPRP, the “shrunken log2 fold change” value was -0.0818. RRIRMRPPRLPRPRPRPMMWPRP was tested, and the “shrunken log2 fold change” value was 0.274. With RRIRMRPPRLPRPRPRPMPAPRP the “shrunken log2 fold change” value was 1.07. For RRIRMRPPRLPRPRPRPMQCPRP, the “shrunken log2 fold change” value was -0.0018. With RRIRMRPPRLPRPRPRPMQEPRP the “shrunken log2 fold change” value was 0.0303. With RRIRMRPPRLPRPRPRPMRIPRP the “shrunken log2 fold change” value was 0.355. For RRIRMRPPRLPRPRPRPMSGPRP, the “shrunken log2 fold change” value was 0.858. For RRIRMRPPRLPRPRPRPMVIPRP, the “shrunken log2 fold change” value was -0.0665. In the case of RRIRMRPPRLPRPRPRPMWQPRP, the “shrunken log2 fold change” value was 0.188. For RRIRMRPPRLPRPRPRPMYHPRP, the “shrunken log2 fold change” value was -0.0178. RRIRMRPPRLPRPRPRPMYNPRP was tested, and the “shrunken log2 fold change” value was -0.815. RRIRMRPPRLPRPRPRPNAYPRP was tested, and the “shrunken log2 fold change” value was 0.311. For RRIRMRPPRLPRPRPRPNEAPRP, the “shrunken log2 fold change” value was 0.326. With RRIRMRPPRLPRPRPRPNEGPRP the “shrunken log2 fold change” value was 0.137. With RRIRMRPPRLPRPRPRPNFMPRP the “shrunken log2 fold change” value was -0.0364. For RRIRMRPPRLPRPRPRPNFPPRP, the “shrunken log2 fold change” value was -0.186. RRIRMRPPRLPRPRPRPNFQPRP was tested, and the “shrunken log2 fold change” value was -0.0246. For RRIRMRPPRLPRPRPRPNFSPRP, the “shrunken log2 fold change” value was 0.0634.
